The text below walks through data of patent publication US20160274129.

The labels stand for the following.
B1: PnFX (protein)
chain: MAPSRANTSVIVVGGGGTIGSSTALHLVRSGYTPSNVTVLDAYPIPSSQSAGNDLNKIMGVSLRNPVDLQLALEARQMWNEDELFKKFFHNTGRLDCAHGEKDIADLKSGYQALVDAGLDATNEWLDSEDEILKRMPLLSRDQIKGWKAIFSKDGGWLAAAKAINAVGEYLRDQGVRFGFYGAGSFKAPLLAEGVCIGVETVDGTRYYADKVVLAAGAWSPTLVELHEQCVSKAWVYGHIQLTPEEAARYKNSPVVYNGDVGFFFEPNEHGVIKVCDEFPGFTRFKMHQPFGAKAPKRISVPRSHAKHPTDTIPDASDVSIRRAIATFMPQFKNKKMFNQAMCWCTDTADAALLICEHPEWKNFVLATGDSGHSFKLLPNIGKHVVELLEGTLADDLAHAWRWRPGSGDALKSRRSAPAKDLADMPGWNHDKPRANL
B2: PnFX-62D/106K/110L/113K (protein)
chain: MAPSRANTSVIVVGGGGTIGSSTALHLVRSGYTPSNVTVLDAYPIPSSQSAGNDLNKIMGVDLRNPVDLQLALEARQMWNEDELFKKFFHNTGRLDCAHGEKDIAKLKSLYQKLVDAGLDATNEWLDSEDEILKRMPLLSRDQIKGWKAIFSKDGGWLAAAKAINAVGEYLRDQGVRFGFYGAGSFKAPLLAEGVCIGVETVDGTRYYADKVVLAAGAWSPTLVELHEQCVSKAWVYGHIQLTPEEAARYKNSPVVYNGDVGFFFEPNEHGVIKVCDEFPGFTRFKMHQPFGAKAPKRISVPRSHAKHPTDTIPDASDVSIRRAIATFMPQFKNKKMFNQAMCWCTDTADAALLICEHPEWKNFVLATGDSGHSFKLLPNIGKHVVELLEGTLADDLAHAWRWRPGSGDALKSRRSAPAKDLADMPGWNHDKPRANL
B3: PnFX-62D/63H/106K/110L/113K/351S (protein)
chain: MAPSRANTSVIVVGGGGTIGSSTALHLVRSGYTPSNVTVLDAYPIPSSQSAGNDLNKIMGVDHRNPVDLQLALEARQMWNEDELFKKFFHNTGRLDCAHGEKDIAKLKSLYQKLVDAGLDATNEWLDSEDEILKRMPLLSRDQIKGWKAIFSKDGGWLAAAKAINAVGEYLRDQGVRFGFYGAGSFKAPLLAEGVCIGVETVDGTRYYADKVVLAAGAWSPTLVELHEQCVSKAWVYGHIQLTPEEAARYKNSPVVYNGDVGFFFEPNEHGVIKVCDEFPGFTRFKMHQPFGAKAPKRISVPRSHAKHPTDTIPDASDVSIRRAIATFMPQFKNKKMFNQAMCWCTDTADSALLICEHPEWKNFVLATGDSGHSFKLLPNIGKHVVELLEGTLADDLAHAWRWRPGSGDALKSRRSAPAKDLADMPGWNHDKPRANL
B4: CFP-T7-H2 (protein)
chain: MTSNRADTRVIVVGGGGTIGSSTALHLVRSGYAPANITVLDTFEIPSAQSAGHDLNKIMGIALRNKVDLQMSLEARQMWKEDELFQPFFHNTGRMDCEHTPEGIEDLKKLYQALHDAGAGLEKTHAWLDNEDEILSKMPLLQRDQIQGWKAIWSQDGGWLAAAKAINAIGQFLKERGVKFGFGGAGSFKQPLFDDEGTTCIGVETADGTKYYADKVVLAAGAWSPTLVDLEDQCCSKAWVYAHIQLTPEEAAEYKGVPVVYNGEFGFFFEPDEFGVIKVCDEFPGFSRFKEHQPYGAPSPKRISVPRSHAKHPTDTYPDASEVSIKKAIATFLPRFQDKELFNRALCWCTDTADAALLMCEHPKWKNFILATGDSGHSFKILPNVGKYVVELIEGRLPEEMAYQWRWRPGGDALKSRRAAPPKDLADMPGWKHDPKL
B5: AnFX (protein)
chain: MTPRANTKIIVVGGGGTMGSSTALHLLRAGYTPSNITVLDTCPIPSAQSAGYDLNKIMGIRLRNKPDLQLSLEALDMWKNDPLFKPFFHNVGMIDVSSTEEGIEGLRKKYQSLLDAGIGLEKTNFMLESEDEILAKAPHFTQEQIKGWKGLFCGDGGWLAAAKAINAIGQFLKEQGVKFGFGGAGTFKKPLFADAHEKTCIGVETVDGTKYYADKVVLAAGAWSSTLVDLEEQCVSKAWVFAHIQLTPAEAAAYKNTPVIYDGDYGFFFEPNENGIIKVCDEFPGFTHFKMHQPYGSPAPKPISVPRSHAKHPTDTYPHASEVTIKKAINRFLPRFNDKELFNRAMCWCTDTADANLLVCEHPRWKGFYLATGDSGHSFKLLPNIGKHVVELLEERLESVFKDAWRWRPGSGDALKSRRAAPAKDLADMPGWRNEAKM
B6: AnFX-61D/62H/101K/105K/109L/112K/355S (protein)
chain: MTPRANTKIIVVGGGGTMGSSTALHLLRAGYTPSNITVLDTCPIPSAQSAGYDLNKIMGIDHRNKPDLQLSLEALDMWKNDPLFKPFFHNVGMIDVSSTEKGIEKLRKLYQKLLDAGIGLEKTNFMLESEDEILAKAPHFTQEQIKGWKGLFCGDGGWLAAAKAINAIGQFLKEQGVKFGFGGAGTFKKPLFADAHEKTCIGVETVDGTKYYADKVVLAAGAWSSTLVDLEEQCVSKAWVFAHIQLTPAEAAAYKNTPVIYDGDYGFFFEPNENGIIKVCDEFPGFTHFKMHQPYGSPAPKPISVPRSHAKHPTDTYPHASEVTIKKAINRFLPRFNDKELFNRAMCWCTDTADSNLLVCEHPRWKGFYLATGDSGHSFKLLPNIGKHVVELLEERLESVFKDAWRWRPGSGDALKSRRAAPAKDLADMPGWRNEAKM
B7: AnFX-61D/105K/109L (protein)
chain: MTPRANTKIIVVGGGGTMGSSTALHLLRAGYTPSNITVLDTCPIPSAQSAGYDLNKIMGIDLRNKPDLQLSLEALDMWKNDPLFKPFFHNVGMIDVSSTEEGIEKLRKLYQSLLDAGIGLEKTNFMLESEDEILAKAPHFTQEQIKGWKGLFCGDGGWLAAAKAINAIGQFLKEQGVKFGFGGAGTFKKPLFADAHEKTCIGVETVDGTKYYADKVVLAAGAWSSTLVDLEEQCVSKAWVFAHIQLTPAEAAAYKNTPVIYDGDYGFFFEPNENGIIKVCDEFPGFTHFKMHQPYGSPAPKPISVPRSHAKHPTDTYPHASEVTIKKAINRFLPRFNDKELFNRAMCWCTDTADANLLVCEHPRWKGFYLATGDSGHSFKLLPNIGKHVVELLEERLESVFKDAWRWRPGSGDALKSRRAAPAKDLADMPGWRNEAKM
B8: EFP-T5 (protein)
chain: MAHSRASTKVVVVGGGGTIGSSTALHLIRSGYTPSNITVLDVYKTPSLQSAGHDLNKIMGIRLRNGPDLQLSLESLDMWQNDELFKPFFHQVGMIDCSSSKEGIENLRRKYQTLLDAGIGLEKTNVWLESEDEILAKAPNFTREQVKGWKGLFCTDGGWLAAAKAINAIGIFLQDKGVKFGFGDAGTFQQPLFAADGKTCIGLETTDGTKYFADKVVLAAGAWSPTLVDLEDQCVSKAWVFAHIQLTPKEADAYKNVPVVYDGEYGFFFEPDEYGVIKVCDEFPGFSRFKLHQPYGAASPKMISVPRSHAKHPTDTYPDASEVTIRKAIARFLPEFKDKELFNRTMCWCTDTADANLLICEHPKWKNFILATGDSGHSFKLLPNIGKYVVELLEGSLSQEMAGAWRWRPGGDALRSRRGAPAKDLAEMPGWKHDAHL
B9: EFP-T5-R62D (protein)
chain: MAHSRASTKVVVVGGGGTIGSSTALHLIRSGYTPSNITVLDVYKTPSLQSAGHDLNKIMGIDLRNGPDLQLSLESLDMWQNDELFKPFFHQVGMIDCSSSKEGIENLRRKYQTLLDAGIGLEKTNVWLESEDEILAKAPNFTREQVKGWKGLFCTDGGWLAAAKAINAIGIFLQDKGVKFGFGDAGTFQQPLFAADGKTCIGLETTDGTKYFADKVVLAAGAWSPTLVDLEDQCVSKAWVFAHIQLTPKEADAYKNVPVVYDGEYGFFFEPDEYGVIKVCDEFPGFSRFKLHQPYGAASPKMISVPRSHAKHPTDTYPDASEVTIRKAIARFLPEFKDKELFNRTMCWCTDTADANLLICEHPKWKNFILATGDSGHSFKLLPNIGKYVVELLEGSLSQEMAGAWRWRPGGDALRSRRGAPAKDLAEMPGWKHDAHL
B10: EFP-T5-62D/63H/106K/110L/113K/355S (protein)
chain: MAHSRASTKVVVVGGGGTIGSSTALHLIRSGYTPSNITVLDVYKTPSLQSAGHDLNKIMGIDHRNGPDLQLSLESLDMWQNDELFKPFFHQVGMIDCSSSKEGIEKLRRLYQKLLDAGIGLEKTNVWLESEDEILAKAPNFTREQVKGWKGLFCTDGGWLAAAKAINAIGIFLQDKGVKFGFGDAGTFQQPLFAADGKTCIGLETTDGTKYFADKVVLAAGAWSPTLVDLEDQCVSKAWVFAHIQLTPKEADAYKNVPVVYDGEYGFFFEPDEYGVIKVCDEFPGFSRFKLHQPYGAASPKMISVPRSHAKHPTDTYPDASEVTIRKAIARFLPEFKDKELFNRTMCWCTDTADSNLLICEHPKWKNFILATGDSGHSFKLLPNIGKYVVELLEGSLSQEMAGAWRWRPGGDALRSRRGAPAKDLAEMPGWKHDAHL
B11: NvFX (protein)
chain: MTTPRKETTVLIIGGGGTIGSSTALHLLRAGYTPSNITVLDTYPIPSAQSAGNDLNKIMGIRLRNKVDLQLSLEARDMWRNDALFRPFFHNTGRLDCESSAEGVEGLRREYQKLVEAGVGLEETHEWLDSEEAILEKAPLLQREEIEGWKAIWSEEGGWLAAAKAINAIGEELQRQGVRFGFGGAGSFKRPLFADDGTTCIGVETVDGTQYHADKVVLAAGAWSPALVDLEEQCCSKAWVYAHMQLTPEEAAVYKGCPVVYHGDVGFFFEPNENGVIKVCDEFPGFTRFKQHQPYGAPAPKPVSVPRSHAKHPTDTYPDASEESIKRAVSTFLPRFKDKPLFNRALCWCTDTADSALLICEHPRWKNFILATGDSGHSFKLLPIIGKHVVELVEGRLADDLAEAWRWRPGQGDARKSIRAAPAKDLADMPGWKHDQDSESR
B12: NvFX-62D/106K/110L (protein)
chain: MTTPRKETTVLIIGGGGTIGSSTALHLLRAGYTPSNITVLDTYPIPSAQSAGNDLNKIMGIDLRNKVDLQLSLEARDMWRNDALFRPFFHNTGRLDCESSAEGVEKLRRLYQKLVEAGVGLEETHEWLDSEEAILEKAPLLQREEIEGWKAIWSEEGGWLAAAKAINAIGEELQRQGVRFGFGGAGSFKRPLFADDGTTCIGVETVDGTQYHADKVVLAAGAWSPALVDLEEQCCSKAWVYAHMQLTPEEAAVYKGCPVVYHGDVGFFFEPNENGVIKVCDEFPGFTRFKQHQPYGAPAPKPVSVPRSHAKHPTDTYPDASEESIKRAVSTFLPRFKDKPLFNRALCWCTDTADSALLICEHPRWKNFILATGDSGHSFKLLPIIGKHVVELVEGRLADDLAEAWRWRPGQGDARKSIRAAPAKDLADMPGWKHDQDSESR

This data set deals with T1, α-fructosyl-valyl-histidyl-leucyl-threonyl-proryl-glutamic acid.
T1 chain: VHLTPE
As to B1, the Specific activity (U/mg), 1 mM αF6P, purified enzyme worked out at 0.0091 U/mg.
With B2, the Specific activity (U/mg), 1 mM αF6P, purified enzyme worked out at 0.125 U/mg and the “fold of specific activity on αF6P against PnFX before mutation” value is given as “specific activity on αF6P was elevated by 13.7 fold”.
Consider B3, for which the Specific activity (U/mg), 1 mM αF6P, purified enzyme turned out to be 0.667 U/mg.
B4 displayed a αF6P oxidation activity (crude enzyme; αFVH oxidation activity = 100) (relative (αFVH = 100)) of 0.0735, a αF6P/αFV of 0.000536 and a αF6P/αFVH of 0.000735.
Take B5: the Specific activity (U/mg), 1 mM αF6P, purified enzyme was 0 U/mg.
Same read-out and setting: with B6 the figure was 0.283 U/mg; with B7, 0.106 U/mg; with B8, 0 U/mg.
Same read-out and setting: in the case of B9 it was 0.0043 U/mg.
Protein B10 registered a Specific activity (U/mg), 1 mM αF6P, purified enzyme of 1.12 U/mg.
Same read-out and setting: with B11 the figure was 0 U/mg; with B12, 0.003 U/mg.
